We go through eight molecules from PMC6099927, “Aptamer Display on Diverse DNA Polyhedron Supports”.

Data set [1] deals with T1, Plasmodium falciparum lactate dehydrogenase (PfLDH) (Plasmodium falciparum, UniProt Q27743 1-316). Briefly: APTEC plate capture assay; 2x PBS binding buffer (recombinant PfLDH), 1 h, streptavidin plate coated with DNA, PBST (0.1% Tween-20) washes, absorbance 570 nm; blood: 1:1 with PBS 0.5% Triton X-100; pH and temperature not stated. The settings on record: protein: recombinant, tags: His (HisTrap purified), chain copies: 4.

Data set [2] has as its target T1, Plasmodium falciparum lactate …. Nature of the data set: APTEC plate capture assay; higher signal than aptamer alone; 2x PBS binding buffer (recombinant PfLDH), 1 h, streptavidin plate coated with DNA, PBST (0.1% Tween-20) washes, absorbance 570 nm; blood: 1:1 with PBS 0.5% Triton X-100; pH and temperature not stated. As to conditions: protein: recombinant, tags: His (HisTrap purified), chain copies: 4.

For data set [3] the target is unchanged. Nature of the data set: APTEC plate capture assay (enzyme activity of captured PfLDH), logistic fit; 2x PBS binding buffer (recombinant PfLDH), 1 h, streptavidin plate coated with DNA, PBST (0.1% Tween-20) washes, absorbance 570 nm; blood: 1:1 with PBS 0.5% Triton X-100; pH and temperature not stated. The settings on record: protein: recombinant; tags: His (HisTrap purified); chain copies: 4; label: 5' biotin; single strand.

T1 sequence (Q27743 whole entry): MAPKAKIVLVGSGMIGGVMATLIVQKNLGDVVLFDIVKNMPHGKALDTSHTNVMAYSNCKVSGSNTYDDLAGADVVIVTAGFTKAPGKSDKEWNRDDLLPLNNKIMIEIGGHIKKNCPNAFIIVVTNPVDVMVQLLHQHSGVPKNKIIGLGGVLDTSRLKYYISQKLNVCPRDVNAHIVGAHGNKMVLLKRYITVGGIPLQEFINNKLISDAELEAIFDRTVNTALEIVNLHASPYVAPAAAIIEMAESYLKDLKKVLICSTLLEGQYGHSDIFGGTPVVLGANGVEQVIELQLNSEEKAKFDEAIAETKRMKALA

B1: aptamer square-based pyramid (mixed)
DNA 1: TTATGTAACCGTGTCACTCCAGGTGTACTTCCTAAAATCGCGCGACCAG
DNA 2: TTCACGGTTACATTCTGTGTTGGCACGGCGTCGTCCGGGTGGCGGTT
DNA 3: TTCACCTGGAGTGTAACCGCCACCCGGACGTCGTTCGTCAAATAGTG
DNA 4: TTTTTTAGGAAGTTCACTATTTGACGAACGTGCTATGCCGCGCGCCT
DNA 5: CTGGGCGGTAGAACCATAGTGACCCAGCCGTCTACTTCGCCGTGCCAACACAGTCTGGTCGCGCGTAGGCGCGCGGCATAGC
For B1, the Kd in data set [1] (label: 5' biotin on P1a-P1d, square-based pyramid of 5 strands) turned out to be 5.99 ± 0.64 nM.

B2: aptamer-tetrahedron 1 (mixed)
DNA 1: TTTTGCGGCTGGAGCCATGTCATCAGGGGCACGTCTCTAGGACGCGGCCGGGTCT
DNA 2: TTCATGGCTCCAGCCGCAATGACGGGACCGTGTGCCTGAGC
DNA 3: TTGAGACGTGCCCCTGATGTGCTCAGGCACTGCAGGGCAAA
DNA 4: CTGGGCGGTAGAACCATAGTGACCCAGCCGTCTACTTCGGTCCCGTCTAGACCCGGCCGCGTCCTTTTTGCCCTGC
As for B2, the Kd in data set [1] (label: 5' biotin on Ta, T1b, T1c, tetrahedron of 4 strands, height 2.65 nm) stood at 1.22 ± 0.13 nM.

B3: aptamer-tetrahedron 2 (mixed)
DNA 1: B2 DNA 1
DNA 2: TTCATGGCTCCAGCCGCAATTATCTAGCGATCTCACCTCGTCAAGGGTAAGCCCG
DNA 3: TTGAGACGTGCCCCTGATGTCGGGCTTACCCTTGACGTGTGGTAATTGTTGTGTA
DNA 4: CTGGGCGGTAGAACCATAGTGACCCAGCCGTCTACTTGGTGAGATCGCTAGATATAGACCCGGCCGCGTCCTTTACACAACAATTACCAC
Regarding B3, the Kd in data set [1] (label: 5' biotin on Ta, T2b, T2c, tetrahedron of 4 strands, height 6.72 nm) is 2.09 ± 0.15 nM.

B4: aptamer-tetrahedron 3 (mixed)
DNA 1: B2 DNA 1
DNA 2: TTCATGGCTCCAGCCGCAATTGATCATTGAGTGTCGGTGGCGATGTCTCCCCGATAAAGCGTATGTTATAAGTCT
DNA 3: TTGAGACGTGCCCCTGATGTAGACTTATAACATACGCTTTATCGGGGTCCGGAGCCATCACACCTGGATCAGGAC
DNA 4: CTGGGCGGTAGAACCATAGTGACCCAGCCGTCTACTTGACATCGCCACCGACACTCAATGATCATAGACCCGGCCGCGTCCTTGTCCTGATCCAGGTGTGATGGCTCCGG
Turning to B4, the Kd in data set [1] (label: 5' biotin on Ta, T3b, T3c, tetrahedron of 4 strands, height 10.55 nm) was determined as 1.61 ± 0.1 nM.

B5: aptamer with double-stranded spacer (C2a/C2b) (mixed)
DNA 1: CTGGGCGGTAGAACCATAGTGACCCAGCCGTCTACTTTGGGGCCGGGCGCGCCCCGGTT
DNA 2: TTCCGGGGCGCGCCCGGCCCCA
Regarding B5, the binding result in data set [2] (label: 3' biotin on C2a, 20 bp spacer duplex, 5' aptamer overhang) was “binds”.

B6: aptamer with single-stranded spacer (C2a) (structured_DNA)
DNA: B5 DNA 1
Consider B6, for which, in data set [2] (label: 3' biotin, single strand), the binding result is “binds”.

B7: aptamer pentagon-based pyramid (mixed)
DNA 1: TTCGGCCGATCTGGCATAGGCTTCCCCAACGTTATCTCGCGTGGCGTACGG
DNA 2: TTGATCGGCCGTTCCGCGCGTCCTGCCCTAGACGCCCCTGGGCCC
DNA 3: TTGCCTATGCCTGGGCCCAGGGGCGTCTTGGAGTCAACAGGTCGG
DNA 4: TTCGTTGGGGATCCGACCTGTTGACTCCTCCCGTCGACCAAAGAT
DNA 5: TTCGCGAGATATATCTTTGGTCGACGGGTCTCAGCCCTGACCCCA
DNA 6: CTGGGCGGTAGAACCATAGTGACCCAGCCGTCTACTTGGGCAGGACGCGCGGATCCGTACGCCTTGGGGTCAGGGCTGAG
Consider B7, for which, in data set [1] (label: 5' biotin on P2a-P2e, pentagon-based pyramid of 6 strands), the Kd worked out at 14.8 ± 0.8 nM.

B8: PfLDH aptamer alone (Apt) (structured_DNA)
DNA: CTGGGCGGTAGAACCATAGTGACCCAGCCGTCTAC
Take B8: the Kd in data set [3] is 12.7 ± 0.71 nM.

As a reminder, the Kd is the constant that tells how readily two partners part at equilibrium.
